Source: patent US20230220038A1, “BRI2 BRICHOS DOMAIN FOR DELIVERY OF PROTEINS INTO CNS NEURONS” (ALPHABETA AB, priority 2021, published 2023)

B1: rh Bri2 BRICHOS-AU1: Rh Bri2 BRICHOS domain, residues 113-231 of Bri2, linked to an AU1 tag at the C-terminal end (SEQ ID NO: 11) (protein, listed as Homo sapiens)
chain: GSQTIEENIKIFEEEEVEFISVPVPEFADSDPANIVHDFNKKLTAYLDLNLDKCYVIPLNTSIVMPPRNLLELLINIKAGTYLPQSYLIHEHMVITDRIENIDHLGFFIYRLCHDKETYKLDTYRYI
modifications: DOMAIN 3..121 Rh Bri2 BRICHOS domain; DOMAIN 122..127 AU1 tag
B2: Bri2 BRICHOS monomers: recombinant human Bri2 BRICHOS (113-231) wild-type, monomeric species (SEQ ID NO: 2) (protein, listed as Homo sapiens)
chain: QTIEENIKIFEEEEVEFISVPVPEFADSDPANIVHDFNKKLTAYLDLNLDKCYVIPLNTSIVMPPRNLLELLINIKAGTYLPQSYLIHEHMVITDRIENIDHLGFFIYRLCHDKETYKL
B3: Bri2 BRICHOS crude: recombinant human Bri2 BRICHOS (113-231) wild-type, crude solution (protein, UniProt Q9Y287 113-231, looked up, fragment)
chain: B2 chain
B4: NT-Bri2 BRICHOS: rh fusion protein: NT* solubility tag followed by human Bri2 residues 113-231 (protein, UniProt Q9Y287 113-231, looked up, fragment)
chain: B2 chain
modifications: NT* spider silk solubility tag
B5: Bri2 BRICHOS oligomers: recombinant human Bri2 BRICHOS (113-231) wild-type, oligomeric species (protein, UniProt Q9Y287 113-231, looked up, fragment)
chain: B2 chain
modifications: oligomers
notes: recombinant human Bri2 BRICHOS (113-231) wild-type, oligomeric species

What was measured:
wild type mice = conditions: mouse, in vivo, iv, 10 mg/kg
Experimental: Two different types of commercially available microbubbles, either Definity® (Lantheus Medical Imaging, MA, USA) or SonoVue® (Bracco, Milan, Italy) were administered at a dose of 5 μl/g body weight. For one part of the study (FIG. 3A), a total of […] mice were divided into four groups that received, respectively, i.v. injections of microbubbles and PBS (n=4), microbubbles and 1 (n=4), 10 (n=6) or 20 (n=4) mg/kg body weight of rh Bri2 BRICHOS-AU1 (SEQ ID NO: 11). In the second part of the study (FIG. 3B), a total of 3 mice were administered 20 mg/kg rh Bri2 BRICHOS-mCherry (SEQ ID NO: 12) (n=1) or microbubbles+20 mg/kg rh Bri2 BRICHOS-mCherry (n=2) intravenously. […]
96-well plates (Nunc MicroWell™) were coated with anti Bri2 BRICHOS capture antibody diluted in coating buffer (50 mM carbonate pH 9.6) and incubated overnight at 4° C. […] The reaction was stopped by adding stop solution for TMB substrates (Thermo Fisher) and absorbance was measured at 450 nm, using the values for brain homogenates from the non-treated mouse as blank. […]
Calculation of concentrations and total amounts of rh Bri2 BRICHOS-AU1 in each brain hemisphere was assessed by assuming a brain density of […], an average brain hemisphere weight of 225 mg and average of total protein in brain hemisphere homogenates of 25.6 mg.

SH-SY5Y cells [1] = test: Cell uptake by western blot, SH-SY5Y; assay type: cell-based, human; conditions: 24 h incubation, western blot band intensities of cell lysate
hCMEC/D3 cells [2] = test: Cell uptake by western blot, hCMEC/D3; assay type: cell-based, human; conditions: hCMEC/D3, 2 h and 24 h, western blot of cell lysate
Experimental: Once confluent, the hCMEC/D3 cells were treated with 1 μM rh Bri2 BRICHOS monomers, oligomers or proSP-C monomers for 2 h and 24 h. […] Untreated cells were used as control. After the treatment, the cells were lysed as described for the HEK-293 cells.

SH-SY5Y cells [3] = tested on: SH-SY5Y cells
Experimental: Human neuroblastoma (SH-SY5Y) cell line (ATCC, Manassas, Va.) was grown in Dulbecco's Modified Eagle's Medium (DMEM, PAN-Biotech, Germany) with 4.5 g/L glucose, glutamine (2 mM) and 3.7 g/L NaHCO3, supplemented with 10% Fetal Bovine Serum (FBS, Sera Plus, PAN-Biotech, Germany) and penicillin-streptomycin (100 IU/ml, 100 μg/ml) in TC-coated T75 tissue culture flasks.
(§1) Cell viability was assessed by tetrazolium-based Thiazolyl Blue Tetrazolium Bromide (MTT) assay. For the MTT assay, 50 000 cells/cm^2 were seeded onto clear 96-well plates (TC, Cellstar, Greiner Bio-One, Austria) and grown until confluent, after which the cells were treated with the rh BRICHOS domains in 8 replicates for 24 h in a humidified atmosphere (5% CO2/95% air) at 37° C. Treated cells were incubated with 0.5 mg/ml MTT (Sigma-Aldrich, St. Louis, Mo.) solution in FBS-free cell media for 4 h in a humidified atmosphere (5% CO^2/95% air) at 37° C. The MTT solution was removed and the formazan crystals were dissolved in Dimethyl sulfoxide (DMSO, Sigma-Aldrich, St. Louis, Mo.) and incubated with shaking for 15 min. Absorbance was measured at 570 nm using a FLUOstar OPTIMA microplate reader (BMG Lab Tech, Germany). Untreated cells were used as positive control, and media without cells was used as a negative control. Also 2 μM Staurosporine from Streptomyces sp. (SP, Sigma-Aldrich, St. Louis, Mo.) was used as a negative control.

hCMEC/D3 cells [4] = tested on: hCMEC/D3 cells
Experimental: hCMEC/D3 cells (MilliporeSigma, Burlington, Mass.) were cultivated in EndoGRO-MV Complete Media (MilliporeSigma, Burlington, Mass.), supplemented with 1 ng/ml recombinant human fibroblast growth factor basic (FGF-2, Gibco, Invitrogen, Waltham, Mass.) and penicillin-streptomycin (100 IU/ml, 100 μg/ml, Gibco, Thermo Fisher Scientific, Waltham, Mass.) in T75 tissue culture flasks (TC-coated, DeltaLab, Spain) coated with 5-10 μg/cm^2 rat tail collagen type I (MilliporeSigma, Burlington, Mass.).
as §1

hCMEC/D3 monolayer = tested on: hCMEC/D3 monolayer
Experimental: For the preparation of the hCMEC/D3 cell monolayers, transwell ethylene terephthalate (PET) membrane inserts (24-well, clear, pore size 0.4 μm, CellQART, SABEU GmbH & Co. KG, Germany) were coated with rat tail type I collagen (150 μg/ml in 1× Dulbecco's Phosphate-buffered saline pH 7.4, 1×DPBS, Gibco, Thermo Fisher Scientific, Waltham, Mass.) for 2 h at 37° C. […] Media was changed every second day and the cell monolayer was established by day 6.
Experiments were conducted on culture day 6 by adding different BRICHOS protein constructs, or relevant controls to the apical side of the hCMEC/D3 monolayer. […] After the incubation, medium on the apical and basolateral sides of the monolayer was removed and analyzed by Western blotting and the band intensities measured by ImageJ. […] For mCherry and mCherry-Bri2 BRICHOS monomers, fluorescence intensity of the apical and basolateral medium was recorded at λex 570 nm and λem 610 nm, after which the cells were fixed and analyzed by fluorescence microscopy to analyse the uptake of mCherry or mCherry-Bri2 BRICHOS into cells.
FITC fluorescence was measured at λex 492 nm and λem 518 nm. Insulin permeability was determined by western blot and an anti-Insulin monoclonal primary antibody (Sigma, St. Louis, Mo.) at 1:1000 dilution. […]

Molecule | percent of the total amount administered detected in the brain (wild type mice) [%] | cell uptake, result in words (SH-SY5Y cells [1]) | cell uptake, result in words (hCMEC/D3 cells [2]) | toxicity / cell mitochondrial activity, result in words (SH-SY5Y cells [3]) | toxicity / cell mitochondrial activity, result in words (hCMEC/D3 cells [4]) | hCMEC/D3 monolayer permeability, result in words (hCMEC/D3 monolayer)
B1 | 1 |  |  |  |  | 
B2 |  | linear uptake | taken up | no toxicity | no toxicity | 
B3 |  |  |  | slight decrease in the cell mitochondrial activity | slight decrease in the cell mitochondrial activity | 
B4 |  |  |  |  |  | only the monomers show permeability
B5 |  | detected in the cell lysate to a lesser degree | seem not to be taken up | slight decrease in the cell mitochondrial activity | slight decrease in the cell mitochondrial activity | 
